Measured values as given in patent US20050032689A1, “Methods for treatment or diagnosis of disease or disorders associated with an APB domain” (New York University, priority 1994, published 2005).

Assays:
EGF receptor = target: T1, EGF receptor (Homo sapiens, UniProt P00533); assay: Binding of GST fusion proteins to immunoprecipitated EGF receptor phosphorylated in vitro, anti-GST blot; conditions: immunoprecipitated receptor from unstimulated cells, with or without Mn2+ and ATP
T1 construct: expressed in transfected cells; host or cells: HER14 (NIH 3T3 cells expressing human EGF receptor)
Experimental: FIGS. 2A and 2B. Association of GST-Shc 1-209 with the EGF Receptor (EGFR). A, HER14 lysates from either EGF-stimulated (+) or unstimulated (−) cells (5×10^6 cells) were incubated with 3 μg of GST fusion protein immobilized on glutathione-agarose beads. The bound proteins were washed, subjected to SDS-PAGE, transferred to nitrocellulose and immunoblotted with anti-EGF receptor antibody, anti-C (anti-EGFR). HER14 lysate (4×10^5 cells) was run directly on the gel in lanes 5 and 6. B, unstimulated HER14 lysates (5×10^6 cells) were immunoprecipitated with anti-EGFR antibody (mAb 108). The immobilized receptor was then phosphorylated (+) by the addition of 5 mM MnCl2 and 50 μM ATP or left unphosphorylated (−) by adding MnCl2 alone. Bacterial lysates containing 5 μg of GST, GST-Grb7, and GST-Shc 1-209 were then diluted in 1 ml of 1% Triton X-100 lysis buffer, added to the immobilized receptor and incubated at 4° C. for 90 min. The bound proteins were washed and together with 40 μl of the post-binding supernatant separated by SDS-PAGE and transferred to nitrocellulose. […]
(§1) Binding Studies—GST fusion proteins were expressed using standard techniques (Ausubel, F. M., et al. Current Protocols in Molecular Biology, (1992) Wiley Interscience, New York). Protein concentration was determined by SDS-PAGE (polyacrylamide gel electrophoresis) using bovine serum albumin as a standard. […]

[1] = tested on: EGF receptor mutants (Y5F, CD196); assay: Binding of GST-Shc 1-209 to EGF receptor autophosphorylation mutants from NIH 3T3 lysates; conditions: all tyrosine-phosphorylated residues mutated to phenylalanine or carboxyl terminus deleted
Experimental: FIG. 3. Association of GST-Shc 1-209 with mutant forms of the EGF receptor. NIH 3T3 cells overexpressing various EGF receptor mutants were stimulated with EGF (200 ng/ml) for 3 min and then lysed. Wild type EGF receptor (W.T.) contains all five known EGF receptor autophosphorylation sites, Y2F has Tyr-992 and Tyr-1068 mutated to phenylalanine, Y5F has all five known EGF receptor autophosphorylation sites mutated to phenylalanine, and CD196 has a carboxyterminal deletion of 196 amino acids deleting all known autophosphorylation sites (Li, N., et al. (1994) Oncogene (In Press). Beads containing GST-Shc 1-209 fusion protein (3 μg) were added to the various lysates containing equal amounts of the receptor (left panels) or the lysates were immunoprecipitated with the anti-EGF receptor (EGFR) antibody (mAb108) (right panels). All samples were incubated at 4° C. for 90 min. The bound proteins were then washed, subjected to SDS-PAGE and transferred to nitrocellulose. […]
as §1

B1: Shc 1-209: Shc amino terminus, first 209 amino acids of murine p52Shc, generated as a GST fusion protein (protein, UniProt P98083 1-209, looked up, fragment)
chain: MDLLPPKPKYNPLRNESLSSLEEGASGSTPPEELPSPSASSLGPILPPLPGDDSPTTLCSFFPRMSNLKLANPAGGRLGPKGEPGKAAEDGEGSAGAALRDSGLLPLLQDMNKLSGGGGRRTRVEGGQLGGEEWTRHGSFVNKPTRGWLHPNDKVMGPGVSYLVRYMGCVEVLQSMRALDFNTRTQVTREAISLVCEAVPGAKGATRRR
modifications: GST fusion
notes: Shc amino terminus, first 209 amino acids of murine p52Shc, generated as a GST fusion protein
For B1, the “binding to EGF receptor phosphorylated in vitro” value (EGF receptor) was “bound directly to phosphorylated but not non-phosphorylated receptors” and the “binding to EGF receptor mutants lacking autophosphorylation sites” value [1] was “completely eliminated Shc 1-209 binding”.
